4 molecules from US20240425614A1 (NARA MEDICAL UNIVERSITY, published 2024) can be followed below.

Changes are numbered by the printed parent chain.

In data set [1] the target is von Willebrand factor (VWF) multimer in human plasma, P04275.
Data set [2] addresses T1, ADAMTS13 in normal human plasma (human, UniProt Q76LX8 75-1427).
T1 sequence (looked up): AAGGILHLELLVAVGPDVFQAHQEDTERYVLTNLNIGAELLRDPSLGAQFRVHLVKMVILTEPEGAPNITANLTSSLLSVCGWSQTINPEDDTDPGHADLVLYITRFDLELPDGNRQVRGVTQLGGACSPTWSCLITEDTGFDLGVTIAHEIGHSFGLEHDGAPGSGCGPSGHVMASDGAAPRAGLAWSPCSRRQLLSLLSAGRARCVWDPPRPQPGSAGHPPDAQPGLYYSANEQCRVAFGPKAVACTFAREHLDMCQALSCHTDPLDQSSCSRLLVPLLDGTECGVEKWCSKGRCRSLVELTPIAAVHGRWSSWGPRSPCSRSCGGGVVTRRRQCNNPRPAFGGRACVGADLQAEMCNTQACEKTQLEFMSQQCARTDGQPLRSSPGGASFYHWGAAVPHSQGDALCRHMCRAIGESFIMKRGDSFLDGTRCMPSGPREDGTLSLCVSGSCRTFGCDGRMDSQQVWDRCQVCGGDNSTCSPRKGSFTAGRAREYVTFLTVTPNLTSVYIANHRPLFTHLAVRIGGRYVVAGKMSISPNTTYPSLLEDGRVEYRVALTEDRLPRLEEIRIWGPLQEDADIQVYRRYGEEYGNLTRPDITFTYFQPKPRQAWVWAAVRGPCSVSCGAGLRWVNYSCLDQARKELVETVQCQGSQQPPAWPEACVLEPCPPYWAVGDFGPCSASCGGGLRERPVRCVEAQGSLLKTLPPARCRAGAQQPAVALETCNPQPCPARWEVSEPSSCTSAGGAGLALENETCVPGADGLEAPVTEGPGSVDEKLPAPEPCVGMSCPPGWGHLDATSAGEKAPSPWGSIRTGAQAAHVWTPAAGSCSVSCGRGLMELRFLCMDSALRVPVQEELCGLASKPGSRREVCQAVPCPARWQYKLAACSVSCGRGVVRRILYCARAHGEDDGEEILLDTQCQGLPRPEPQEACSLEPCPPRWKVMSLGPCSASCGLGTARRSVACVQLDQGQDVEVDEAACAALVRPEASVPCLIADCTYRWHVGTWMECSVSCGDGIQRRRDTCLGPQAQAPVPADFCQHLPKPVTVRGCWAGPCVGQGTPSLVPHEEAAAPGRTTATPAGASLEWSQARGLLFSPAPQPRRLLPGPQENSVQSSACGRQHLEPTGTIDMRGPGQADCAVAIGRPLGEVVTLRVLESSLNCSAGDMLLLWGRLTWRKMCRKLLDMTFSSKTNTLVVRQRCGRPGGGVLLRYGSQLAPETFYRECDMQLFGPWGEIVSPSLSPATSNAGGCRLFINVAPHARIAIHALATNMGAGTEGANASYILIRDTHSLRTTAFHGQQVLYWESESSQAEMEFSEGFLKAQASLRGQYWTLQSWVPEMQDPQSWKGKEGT
Briefly: cell-based or functional assay.

B1: ADAMTS13 in normal human plasma (protein)
chain: T1 sequence (looked up)
Consider B1, for which the “VWF multimer analysis (SDS-agarose gel, Western blot) of human plasma under high shear stress” value in data set [1] was “more deficiency in high-molecular-weight VWF multimer and stronger cleavage of VWF were shown with increase in shear stress of 108 dyne/cm^2, 216 dyne/cm^2, and 324 dyne/cm^2”.

B2: 1G2 antibody (antibody, mouse IgG1, kappa, V domains shown)
VH: QVQLRESGPGLVAPSQSLSITCTVSGFSLPRYGIHWVRQPPGKGLEWLGVIWAGGSTDYDSALMSRLSISKDTSKSQVFLKMSSLQTDDTAIYYCARAGGSQPFDYWGQGTTLTVSS
VL: DIKMTQSPSSMYASLGERVTITCKASRDINTYLSWFQQKPGKSPKTLISRANRLVDGVPSRFSGSGSGQDYSLSISSLEYEDMGFYYCLQYDEFPWTFGGGTKLVIKR
B2: in data set [2], the “ID50 concentration on the VWF cleaving activity of ADAMTS13 (ADAMTS13 activity remaining in human plasma, ELISA)” value was around 7.28 µg/mL.

B3: 9A7 antibody (antibody, mouse IgG2b, kappa, V domains shown)
VH: QVQLKESGPGLVAPSQSLSITCTVSGFSLTGYGIHWVRQPPGKGLEWLGVIWADGTTNSNSALMSRLSISKDNSKSQVFLKMTSLQTDDTAMYHCARAGGSQPFDYWGQGTTLTVSS
VL: B2 VL with R27Q, T31S, S49F, S74T, G84E, F85I, V105E
B3: the “ID50 concentration on the VWF cleaving activity of ADAMTS13 (ADAMTS13 activity remaining in human plasma, ELISA)” value in data set [2] is around 19.5 µg/mL.

B4: 12D10 antibody (antibody, mouse IgG1, kappa, V domains shown)
VH: QVQLKESGPGLVAPSQSLSITCTVSGFSLTRYGVHWVRQPPGKGLEWLGVIWAGGSTNYKSALMSRLNITKDNSKSQVFLKMNGLQTDDTAIYFCARAGGSSSFDYWGQGTTLTVSS
VL: B2 VL with Y12N, R27Q, S34G, S49Y, D70G, S74T, F85I, V105E
Regarding B4, the “ID50 concentration on the VWF cleaving activity of ADAMTS13 (ADAMTS13 activity remaining in human plasma, ELISA)” value in data set [2] is around 25.4 µg/mL.
